Results published in patent US20200123228A1.
Read-outs that look alike come from different tables or passages of the source.

Assays:
rmCTLA4 (mouse) [1] = target: rmCTLA4 (mouse) (UniProt P09793); test: ELISA
rmCTLA4 (mouse) [2] = target: rmCTLA4 (mouse) (UniProt P09793); test: ELISA; remark: listed apart in the source
rmCTLA4 (mouse) [3] = target: rmCTLA4 (mouse) (UniProt P09793); test: ELISA; remark: listed apart in the source
Fibronectin (human) = Fibronectin (human) (UniProt P02751); test: ELISA
Sequence of Fibronectin (human) (P02751 32-2477): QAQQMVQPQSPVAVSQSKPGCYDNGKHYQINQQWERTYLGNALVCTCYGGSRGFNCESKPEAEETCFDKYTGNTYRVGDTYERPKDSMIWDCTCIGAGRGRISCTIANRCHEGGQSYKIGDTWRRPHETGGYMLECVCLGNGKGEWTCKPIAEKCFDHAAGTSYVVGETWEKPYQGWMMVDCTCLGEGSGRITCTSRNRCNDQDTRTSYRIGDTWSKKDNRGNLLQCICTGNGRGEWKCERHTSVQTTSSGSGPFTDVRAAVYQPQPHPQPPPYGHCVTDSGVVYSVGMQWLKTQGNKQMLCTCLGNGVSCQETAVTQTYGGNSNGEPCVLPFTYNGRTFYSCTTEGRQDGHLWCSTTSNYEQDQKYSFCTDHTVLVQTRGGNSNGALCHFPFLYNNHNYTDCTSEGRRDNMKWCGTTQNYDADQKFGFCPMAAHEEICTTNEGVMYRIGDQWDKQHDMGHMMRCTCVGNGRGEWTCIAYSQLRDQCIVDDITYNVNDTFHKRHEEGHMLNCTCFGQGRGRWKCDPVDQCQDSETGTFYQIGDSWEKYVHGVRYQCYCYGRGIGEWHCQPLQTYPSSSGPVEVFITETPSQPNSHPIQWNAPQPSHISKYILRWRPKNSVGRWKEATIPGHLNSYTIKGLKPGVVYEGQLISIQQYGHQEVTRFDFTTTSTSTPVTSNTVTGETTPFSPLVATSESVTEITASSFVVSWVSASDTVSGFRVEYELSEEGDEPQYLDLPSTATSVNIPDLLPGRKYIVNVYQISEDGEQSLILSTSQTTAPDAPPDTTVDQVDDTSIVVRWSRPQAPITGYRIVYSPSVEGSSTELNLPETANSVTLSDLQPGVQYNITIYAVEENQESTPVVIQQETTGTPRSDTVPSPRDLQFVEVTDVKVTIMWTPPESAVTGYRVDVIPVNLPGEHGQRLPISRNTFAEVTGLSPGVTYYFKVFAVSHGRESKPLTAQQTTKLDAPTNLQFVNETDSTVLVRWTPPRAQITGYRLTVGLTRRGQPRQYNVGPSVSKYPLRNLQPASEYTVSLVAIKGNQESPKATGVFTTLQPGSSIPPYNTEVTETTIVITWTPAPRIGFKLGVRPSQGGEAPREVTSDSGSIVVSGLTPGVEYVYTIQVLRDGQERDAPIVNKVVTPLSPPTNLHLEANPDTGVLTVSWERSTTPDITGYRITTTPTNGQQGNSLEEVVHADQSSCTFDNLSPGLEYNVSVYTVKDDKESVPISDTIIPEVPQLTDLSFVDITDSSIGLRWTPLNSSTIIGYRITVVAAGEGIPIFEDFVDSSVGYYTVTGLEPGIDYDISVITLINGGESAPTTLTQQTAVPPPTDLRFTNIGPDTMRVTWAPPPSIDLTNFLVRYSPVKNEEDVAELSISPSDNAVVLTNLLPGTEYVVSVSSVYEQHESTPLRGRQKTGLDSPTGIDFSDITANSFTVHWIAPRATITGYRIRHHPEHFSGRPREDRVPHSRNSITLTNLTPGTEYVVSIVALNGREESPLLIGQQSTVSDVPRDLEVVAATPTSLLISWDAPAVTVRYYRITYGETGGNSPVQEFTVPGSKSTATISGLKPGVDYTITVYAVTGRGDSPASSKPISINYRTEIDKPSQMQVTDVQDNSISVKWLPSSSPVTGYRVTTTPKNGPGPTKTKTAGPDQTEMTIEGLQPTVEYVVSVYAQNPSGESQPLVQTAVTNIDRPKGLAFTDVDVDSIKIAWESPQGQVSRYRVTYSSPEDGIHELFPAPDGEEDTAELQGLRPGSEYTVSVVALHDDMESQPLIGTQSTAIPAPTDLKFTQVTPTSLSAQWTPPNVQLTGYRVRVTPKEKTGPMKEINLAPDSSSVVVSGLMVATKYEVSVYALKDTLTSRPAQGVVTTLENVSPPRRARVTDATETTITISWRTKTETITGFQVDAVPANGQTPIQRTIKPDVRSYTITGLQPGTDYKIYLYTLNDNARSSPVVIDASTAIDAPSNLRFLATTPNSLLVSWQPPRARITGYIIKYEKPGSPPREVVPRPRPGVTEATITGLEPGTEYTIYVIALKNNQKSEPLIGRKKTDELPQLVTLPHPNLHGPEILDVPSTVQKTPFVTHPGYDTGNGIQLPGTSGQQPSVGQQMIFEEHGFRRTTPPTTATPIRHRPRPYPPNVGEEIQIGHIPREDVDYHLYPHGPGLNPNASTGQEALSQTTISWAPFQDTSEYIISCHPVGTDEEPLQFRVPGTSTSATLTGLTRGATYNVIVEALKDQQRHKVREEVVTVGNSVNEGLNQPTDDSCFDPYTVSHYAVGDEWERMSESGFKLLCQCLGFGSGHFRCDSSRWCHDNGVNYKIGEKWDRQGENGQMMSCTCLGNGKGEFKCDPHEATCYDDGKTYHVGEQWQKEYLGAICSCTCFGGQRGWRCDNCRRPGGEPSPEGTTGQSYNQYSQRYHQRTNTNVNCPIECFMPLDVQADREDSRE

Collagen I (human) = Collagen I (human) (UniProt P02452); test: ELISA
Sequence of Collagen I (human) (P02452 162-1218, chain 1 of 2): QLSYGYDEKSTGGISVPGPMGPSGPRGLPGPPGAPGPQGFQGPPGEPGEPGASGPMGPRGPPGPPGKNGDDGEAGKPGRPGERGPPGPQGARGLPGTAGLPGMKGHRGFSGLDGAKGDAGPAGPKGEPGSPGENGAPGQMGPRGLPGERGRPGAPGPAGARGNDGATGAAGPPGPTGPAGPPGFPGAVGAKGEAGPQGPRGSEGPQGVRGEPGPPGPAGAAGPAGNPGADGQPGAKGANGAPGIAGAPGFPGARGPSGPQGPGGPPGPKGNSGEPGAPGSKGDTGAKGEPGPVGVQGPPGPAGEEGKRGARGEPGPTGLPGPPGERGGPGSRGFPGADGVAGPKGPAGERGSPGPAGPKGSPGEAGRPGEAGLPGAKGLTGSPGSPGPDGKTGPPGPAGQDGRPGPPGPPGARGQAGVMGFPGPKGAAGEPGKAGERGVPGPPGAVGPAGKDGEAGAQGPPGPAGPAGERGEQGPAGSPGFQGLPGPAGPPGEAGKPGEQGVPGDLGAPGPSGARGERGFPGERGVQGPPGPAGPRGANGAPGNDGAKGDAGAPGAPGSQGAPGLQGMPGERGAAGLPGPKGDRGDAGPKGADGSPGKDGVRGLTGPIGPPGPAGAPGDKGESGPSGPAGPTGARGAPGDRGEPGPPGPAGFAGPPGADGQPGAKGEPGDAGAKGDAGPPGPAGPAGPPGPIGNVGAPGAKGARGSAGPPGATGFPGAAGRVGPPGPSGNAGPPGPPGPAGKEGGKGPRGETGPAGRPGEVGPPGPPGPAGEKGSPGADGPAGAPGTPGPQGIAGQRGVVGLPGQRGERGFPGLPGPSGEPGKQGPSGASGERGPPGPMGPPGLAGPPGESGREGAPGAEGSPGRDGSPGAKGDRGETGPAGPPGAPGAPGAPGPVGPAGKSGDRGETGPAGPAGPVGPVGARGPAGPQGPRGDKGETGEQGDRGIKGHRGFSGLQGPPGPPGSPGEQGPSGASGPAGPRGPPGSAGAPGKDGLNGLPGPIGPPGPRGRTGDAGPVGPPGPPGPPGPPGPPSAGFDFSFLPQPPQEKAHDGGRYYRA
Sequence of Collagen I (human) (P08123 80-1119, chain 2 of 2, further chain): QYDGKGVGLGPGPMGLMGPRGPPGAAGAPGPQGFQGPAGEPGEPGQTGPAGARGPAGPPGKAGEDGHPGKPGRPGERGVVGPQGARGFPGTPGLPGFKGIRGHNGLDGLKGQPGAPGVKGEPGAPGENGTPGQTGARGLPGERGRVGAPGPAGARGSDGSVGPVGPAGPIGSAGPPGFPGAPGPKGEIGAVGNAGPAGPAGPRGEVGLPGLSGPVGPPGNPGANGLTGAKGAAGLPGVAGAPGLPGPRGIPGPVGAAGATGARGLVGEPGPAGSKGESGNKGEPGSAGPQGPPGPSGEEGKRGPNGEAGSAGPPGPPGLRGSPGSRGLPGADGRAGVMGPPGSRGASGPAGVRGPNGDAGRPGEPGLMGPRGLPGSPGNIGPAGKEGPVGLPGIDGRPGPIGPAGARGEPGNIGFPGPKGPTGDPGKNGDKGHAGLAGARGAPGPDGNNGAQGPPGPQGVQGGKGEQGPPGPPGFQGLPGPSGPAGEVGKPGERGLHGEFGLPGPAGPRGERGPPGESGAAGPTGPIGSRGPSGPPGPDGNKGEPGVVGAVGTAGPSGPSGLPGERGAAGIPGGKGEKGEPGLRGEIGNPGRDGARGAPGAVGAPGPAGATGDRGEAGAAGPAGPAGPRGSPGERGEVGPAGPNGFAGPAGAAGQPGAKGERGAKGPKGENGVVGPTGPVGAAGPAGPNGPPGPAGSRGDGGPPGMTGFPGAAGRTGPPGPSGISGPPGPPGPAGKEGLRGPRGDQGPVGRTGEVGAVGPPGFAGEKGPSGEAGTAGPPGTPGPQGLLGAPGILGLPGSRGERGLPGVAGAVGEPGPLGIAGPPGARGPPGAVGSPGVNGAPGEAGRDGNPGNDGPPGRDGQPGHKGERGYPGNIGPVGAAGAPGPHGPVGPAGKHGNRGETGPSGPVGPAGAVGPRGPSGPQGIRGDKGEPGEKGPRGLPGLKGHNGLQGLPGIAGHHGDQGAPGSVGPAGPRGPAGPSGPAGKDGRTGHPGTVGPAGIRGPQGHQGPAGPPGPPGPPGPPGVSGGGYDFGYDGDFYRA

[4] = target: bovine collagen (Symatese), polymerized gel (bovine); test: retention on polymerized bovine collagen gel, antibody loaded at 10 µg/mL, released antibody measured by ELISA

Sequence of rmCTLA4 (mouse) (P09793 36-162): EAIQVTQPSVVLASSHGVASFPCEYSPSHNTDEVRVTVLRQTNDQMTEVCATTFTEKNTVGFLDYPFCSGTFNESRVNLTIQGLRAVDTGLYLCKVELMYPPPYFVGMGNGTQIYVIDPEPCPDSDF

Row | Substance | Kd (rmCTLA4 (mouse) [1]) | Kd (rmCTLA4 (mouse) [2]) | Kd (rmCTLA4 (mouse) [3]) | Kd (Fibronectin (human)) | Kd (Collagen I (human)) | % of antibody released by plasmin digestion after buffer changes [4]
1 | PlGF-2123-144-4F10 | 0.16 nM | – | 0.157 nM | 4.7 nM | 26.7 nM | –
2 | PlGF-2123-144-9H10 | 5.7 nM | – | – | 0.87 nM | 1.3 nM | –

The remaining lines, values ahead:

Row | Kd (rmCTLA4 (mouse) [1]) | Kd (rmCTLA4 (mouse) [2]) | Kd (rmCTLA4 (mouse) [3]) | Kd (Fibronectin (human)) | Kd (Collagen I (human)) | % of antibody released by plasmin digestion after buffer changes [4] | Substance
3 | 0.101 nM | 0.1 nM | – | – | – | – | 4F10
4 | 15 nM | – | – | – | – | – | 9H10
5 | – | – | – | – | – | < 0.1% | rat anti-mouse PD-L1 (clone 10F.9G2), wild-type (antibody)
